Results: US6498233, “Nucleic acid transfer system” (Winfried)

Target: scFv(FRP5)-deltaETA-deltaGAL4 (synthetic construct (Saccharomyces …))
Assay: EMSA; […] (printed ml); 50 mM Hepes pH 7.5, 50 mM KCl, 5 mM MgCl2, […], room temperature; […] (11.3)
Conditions: tags: N-terminal FLAG and His6, C-terminal KDEL signal; chain copies: 2 (stated; dimer per site, two dimers on tandem site); label: 5'-32P

B1: G4 oligonucleotide (two GAL4 motifs) (dsDNA)
DNA 1: AGCTTGGATCCGGAGGACAGTCCTCCGGAGACCGGAGGACAGTCCTCC
DNA 2: GATCGGAGGACTGTCCTCCGGTCTCCGGAGGACTGTCCTCCGGATCCA
  binding result: binds
